Source: the supplement of paper PMC9732359
± gives the uncertainty stated by the source.

Test: protein stability index of a GFP-peptide fusion (yeast GPS) (PSI 1-4); higher = more stable; sorted into four equal gates, so the index is relative within each strain
How it was run: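 The protein stability index combines read frequencies across sorting gates, each weighted by its gate number and then summed. To obtain those frequencies, a pooled yeast library of GFP fusions to tiled 17-residue yeast protein peptides, on a plasmid also expressing Cherry, was grown to mid-log phase in leucine-free medium. The cells were sorted into four equal gates by GFP/Cherry ratio before plasmid amplification by PCR and Illumina sequencing.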

In the case of GALQESVEAYLVSLFED [HHT1], the protein stability index (doa10∆) is reported as 1.42 ± 0.095, the protein stability index (pdr5∆) is reported as 2.62 ± 0.12 and the protein stability index (san1∆) is reported as 2.29 ± 0.12. For the same sequence, the protein stability index (ubr1∆) was 2.05 ± 0.08.

Work on FVVKLDTVDRLIIKYQK [GAL11] yielded a protein stability index (doa10∆) of 2.25 ± 0.042, a protein stability index (pdr5∆) of 2.3 ± 0.048 and a protein stability index (san1∆) of 2.54 ± 0.054. The protein stability index (ubr1∆) was 2 ± 0.039.

ILDCVVTNSMRQTLAPY [YJR042W/NUP85] gave a protein stability index (doa10∆) of 2.29 ± 0.064, a protein stability index (pdr5∆) of 2.84 ± 0.052 and a protein stability index (san1∆) of 2.53 ± 0.05. For the same sequence, the protein stability index (ubr1∆) was 2.6 ± 0.048.

In the case of KKVKLAVLSYYKVDAEG [RPS31], the protein stability index (doa10∆) is reported as 1.62 ± 0.084, the protein stability index (pdr5∆) is reported as 2.32 ± 0.082 and the protein stability index (san1∆) is reported as 2.52 ± 0.074. The protein stability index (ubr1∆) was 1.95 ± 0.068.

QLFHNLISIHSRENNSE [YJL039C/NUP192] gave a protein stability index (doa10∆) of 2.6 ± 0.079, a protein stability index (pdr5∆) of 2.61 ± 0.076 and a protein stability index (san1∆) of 2.3 ± 0.11. For the same sequence, the protein stability index (ubr1∆) was 2.88 ± 0.091.

Work on LPLQAQQQLYGGNNNNN [SWI1] yielded a protein stability index (doa10∆) of 3.05 ± 0.064, a protein stability index (pdr5∆) of 2.92 ± 0.07 and a protein stability index (san1∆) of 2.68 ± 0.068. For the same sequence, the protein stability index (ubr1∆) was 2.56 ± 0.045.

AAKKRRPAAKGKNLSFK [RRP6] showed a protein stability index (doa10∆) of 2.35 ± 0.24, a protein stability index (pdr5∆) of 2.77 ± 0.14 and a protein stability index (san1∆) of 2.35 ± 0.2. It also gave a protein stability index (ubr1∆) of 2.72 ± 0.1.

With AQAAQAAQAQAQAQAQA [GAL11] the protein stability index (doa10∆) was 2.53 ± 0.041, the protein stability index (pdr5∆) was 2.87 ± 0.046 and the protein stability index (san1∆) was 2.71 ± 0.034. It also gave a protein stability index (ubr1∆) of 2.82 ± 0.044.

Sequence LNSLLTYIKSEITQQEK [SMC4] has a protein stability index (doa10∆) of 2.77 ± 0.066, a protein stability index (pdr5∆) of 2.04 ± 0.055 and a protein stability index (san1∆) of 2.73 ± 0.071. The protein stability index (ubr1∆) was 2.63 ± 0.06.

Work on DAMIAQRSKKIQPTAKV [DIS3] yielded a protein stability index (doa10∆) of 1.83 ± 0.082, a protein stability index (pdr5∆) of 1.99 ± 0.084 and a protein stability index (san1∆) of 1.59 ± 0.067. For the same sequence, the protein stability index (ubr1∆) was 1.69 ± 0.068.

With PKDSSSTFREWKNLVLK [YJR042W/NUP85] the protein stability index (doa10∆) was 3.29 ± 0.11, the protein stability index (pdr5∆) was 2.76 ± 0.12 and the protein stability index (san1∆) was 3 ± 0.065. For the same sequence, the protein stability index (ubr1∆) was 3.16 ± 0.088.

Work on VEENRVRYTTSVMPPNE [DLS1] yielded a protein stability index (doa10∆) of 2.62 ± 0.055, a protein stability index (pdr5∆) of 2.79 ± 0.051 and a protein stability index (san1∆) of 2.85 ± 0.048. For the same sequence, the protein stability index (ubr1∆) was 2.86 ± 0.055.

For PGIISITSLQDSSSQCI [YMR129W/POM152], the protein stability index (doa10∆) was 2.86 ± 0.076, the protein stability index (pdr5∆) was 3.04 ± 0.074 and the protein stability index (san1∆) was 3 ± 0.066. For the same sequence, the protein stability index (ubr1∆) was 3.14 ± 0.085.

FDVNTLCLMTWKEVMFD [CDC53] gave a protein stability index (doa10∆) of 2.61 ± 0.096, a protein stability index (pdr5∆) of 2.59 ± 0.065 and a protein stability index (san1∆) of 2.81 ± 0.11. The protein stability index (ubr1∆) was 2.85 ± 0.068.

For PGWDFETEEIDPELLRS [RPL5], the protein stability index (doa10∆) was 3.34 ± 0.13, the protein stability index (pdr5∆) was 3.19 ± 0.081 and the protein stability index (san1∆) was 3.11 ± 0.057. For the same sequence, the protein stability index (ubr1∆) was 2.77 ± 0.17.

Work on NFENDNENNSNGGEDTS [REC8] yielded a protein stability index (doa10∆) of 2.93 ± 0.2, a protein stability index (pdr5∆) of 2.64 ± 0.27 and a protein stability index (san1∆) of 2.65 ± 0.16. It also gave a protein stability index (ubr1∆) of 2.81 ± 0.16.

QVSKKLSSIEASLKIKN [SMC3] gave a protein stability index (doa10∆) of 1.67 ± 0.069, a protein stability index (pdr5∆) of 1.7 ± 0.085 and a protein stability index (san1∆) of 2.44 ± 0.12. It also gave a protein stability index (ubr1∆) of 2.27 ± 0.08.

AANEGTAVSFVSAAEDE [PRP28] gave a protein stability index (doa10∆) of 2.96 ± 0.24, a protein stability index (pdr5∆) of 3.46 ± 0.23 and a protein stability index (san1∆) of 3.01 ± 0.19.

TNLKNHPAYLFKGLETP [YLR018C/POM34] gave a protein stability index (doa10∆) of 2.38 ± 0.055, a protein stability index (pdr5∆) of 2.51 ± 0.039 and a protein stability index (san1∆) of 1.59 ± 0.061. It also gave a protein stability index (ubr1∆) of 2.36 ± 0.028.

In the case of NYESVFTYNKFLLNQNK [YIL149C/MLP2], the protein stability index (doa10∆) is reported as 1.47 ± 0.045, the protein stability index (pdr5∆) is reported as 1.92 ± 0.049 and the protein stability index (san1∆) is reported as 2.24 ± 0.1. It also gave a protein stability index (ubr1∆) of 2.26 ± 0.049.

NDSENNSSEEDKKKGQN [ITC1] showed a protein stability index (doa10∆) of 2.24 ± 0.073, a protein stability index (pdr5∆) of 2.53 ± 0.11 and a protein stability index (san1∆) of 2.68 ± 0.12. It also gave a protein stability index (ubr1∆) of 2.86 ± 0.1.

In the case of DYISGISVGLYDTTPLL [SKI6], the protein stability index (doa10∆) is reported as 2.42 ± 0.12, the protein stability index (pdr5∆) is reported as 2.28 ± 0.1 and the protein stability index (san1∆) is reported as 1.84 ± 0.084. For the same sequence, the protein stability index (ubr1∆) was 2.26 ± 0.13.

With ESDAPPKSTAPIFSFGK [YOR098C/NUP1] the protein stability index (doa10∆) was 2.72 ± 0.044, the protein stability index (pdr5∆) was 2.58 ± 0.044 and the protein stability index (san1∆) was 2.71 ± 0.042. The protein stability index (ubr1∆) was 2.76 ± 0.038.

Sequence DSVLLNRGNKKRHRSSY [YML031W/NDC1] has a protein stability index (doa10∆) of 3.03 ± 0.099, a protein stability index (pdr5∆) of 3.25 ± 0.1 and a protein stability index (san1∆) of 3.04 ± 0.06. It also gave a protein stability index (ubr1∆) of 3.15 ± 0.076.

STKKDTVQLTFLIDVLK [YCG1] showed a protein stability index (doa10∆) of 2.38 ± 0.096, a protein stability index (pdr5∆) of 2.72 ± 0.068 and a protein stability index (san1∆) of 2.47 ± 0.078. For the same sequence, the protein stability index (ubr1∆) was 2.81 ± 0.068.

For PQIAQLPLATQQQVLNK [SNF5], the protein stability index (doa10∆) was 1.94 ± 0.074, the protein stability index (pdr5∆) was 2.3 ± 0.075 and the protein stability index (san1∆) was 2 ± 0.13. For the same sequence, the protein stability index (ubr1∆) was 2.17 ± 0.068.

For LLGYTGIPTDKGPRFRK [PRE8], the protein stability index (doa10∆) was 2.81 ± 0.18, the protein stability index (pdr5∆) was 3.02 ± 0.14 and the protein stability index (san1∆) was 2.66 ± 0.066. It also gave a protein stability index (ubr1∆) of 2.98 ± 0.11.

For FPEVFQVNIRFLLHNSE [SRB8], the protein stability index (doa10∆) was 1.64 ± 0.1, the protein stability index (pdr5∆) was 1.73 ± 0.13 and the protein stability index (ubr1∆) was 2.62 ± 0.17.

Sequence VNESRNSDDIIDVDMDA [SRB5] has a protein stability index (doa10∆) of 2.27 ± 0.065, a protein stability index (pdr5∆) of 2.2 ± 0.053 and a protein stability index (san1∆) of 2.57 ± 0.078. It also gave a protein stability index (ubr1∆) of 2.59 ± 0.052.

VNEENDSYIALYEKDIV [RET1] showed a protein stability index (doa10∆) of 2.6 ± 0.064, a protein stability index (pdr5∆) of 2.56 ± 0.076 and a protein stability index (san1∆) of 2.69 ± 0.061. For the same sequence, the protein stability index (ubr1∆) was 2.68 ± 0.07.

Sequence VSVPVSGQKTNRQVMHK [SIR3] has a protein stability index (doa10∆) of 2.58 ± 0.13, a protein stability index (pdr5∆) of 3.27 ± 0.14 and a protein stability index (san1∆) of 3.05 ± 0.13. For the same sequence, the protein stability index (ubr1∆) was 2.86 ± 0.17.

TSASQPFKFGKTSEKSE [YOR098C/NUP1] gave a protein stability index (doa10∆) of 3.1 ± 0.14, a protein stability index (pdr5∆) of 3.22 ± 0.15 and a protein stability index (san1∆) of 2.96 ± 0.13. It also gave a protein stability index (ubr1∆) of 3.17 ± 0.093.

For DAKSSAYSSRFQTPFRR [RPL5], the protein stability index (doa10∆) was 2.82 ± 0.067, the protein stability index (pdr5∆) was 2.83 ± 0.052 and the protein stability index (san1∆) was 2.78 ± 0.054. The protein stability index (ubr1∆) was 2.91 ± 0.05.

KLDSKKTVPFQVNQLQR [SSN3] gave a protein stability index (doa10∆) of 3.15 ± 0.063, a protein stability index (pdr5∆) of 3.28 ± 0.042 and a protein stability index (san1∆) of 3.19 ± 0.046. For the same sequence, the protein stability index (ubr1∆) was 3.12 ± 0.049.

FAKQVDVQLERVADEDA [IRR1] gave a protein stability index (doa10∆) of 3.15 ± 0.15, a protein stability index (pdr5∆) of 3.13 ± 0.29 and a protein stability index (san1∆) of 2.76 ± 0.26.

Sequence RKKTEAVARLKSMNKSA [SNF2] has a protein stability index (doa10∆) of 1.68 ± 0.074, a protein stability index (pdr5∆) of 2.17 ± 0.085 and a protein stability index (san1∆) of 2.23 ± 0.1. The protein stability index (ubr1∆) was 2.08 ± 0.065.

MLQISDDNEMTRDDLLT [RRI2] gave a protein stability index (doa10∆) of 2.93 ± 0.1, a protein stability index (pdr5∆) of 3.27 ± 0.1 and a protein stability index (san1∆) of 3.17 ± 0.038. For the same sequence, the protein stability index (ubr1∆) was 3.1 ± 0.056.

LTKKEKKEANLFPEQQT [RPL6B] showed a protein stability index (doa10∆) of 3.08 ± 0.073, a protein stability index (pdr5∆) of 3.21 ± 0.072 and a protein stability index (san1∆) of 3.25 ± 0.06. It also gave a protein stability index (ubr1∆) of 3.15 ± 0.049.

Work on DMDAQGRSDSNTEEKAE [YGL100W/SEH1] yielded a protein stability index (doa10∆) of 1.57 ± 0.038, a protein stability index (pdr5∆) of 1.67 ± 0.051 and a protein stability index (san1∆) of 1.5 ± 0.14. It also gave a protein stability index (ubr1∆) of 1.4 ± 0.041.

Work on QKKVPDKLLDPTTVSYI [SCL1] yielded a protein stability index (doa10∆) of 2.9 ± 0.05, a protein stability index (pdr5∆) of 2.28 ± 0.047 and a protein stability index (san1∆) of 2.4 ± 0.056. It also gave a protein stability index (ubr1∆) of 2.67 ± 0.044.

In the case of ELEHLTKKSKLESTKAE [DSN1], the protein stability index (doa10∆) is reported as 3.37 ± 0.1, the protein stability index (pdr5∆) is reported as 3.08 ± 0.081 and the protein stability index (san1∆) is reported as 3.32 ± 0.095. It also gave a protein stability index (ubr1∆) of 3.13 ± 0.063.

In the case of FKDETISKKIIGMSLLM [SIR3], the protein stability index (doa10∆) is reported as 3.04 ± 0.062, the protein stability index (pdr5∆) is reported as 2.07 ± 0.06 and the protein stability index (san1∆) is reported as 2.78 ± 0.068. For the same sequence, the protein stability index (ubr1∆) was 3.51 ± 0.058.

Sequence RDDLFVRNLQGIQEVVH [NUT1] has a protein stability index (doa10∆) of 2.9 ± 0.09, a protein stability index (pdr5∆) of 3.2 ± 0.094 and a protein stability index (san1∆) of 3.15 ± 0.073. The protein stability index (ubr1∆) was 3.23 ± 0.068.
